Reference: patent US20240207429A1 (PROFOUNDBIO US, published 2024)

How the values were obtained:
[1] = target: T1, Human FOLR1 Protein His Tag (ACRO-FO1-H52H1) (human, UniProt P15328 25-233); assay: ELISA, supernatant diluted 1x
T1 construct: not shown: His tag

[2] = target: T2, Cynomolgus/Rhesus macaque FOLR1 Protein, His Tag (ACRO, F01-C52H8) (cynomolgus, UniProt A0A2K5U044 25-233); assay: ELISA, supernatant diluted 1x
T2 construct: also called cynomolgus FOLR1 protein; not shown: His tag

[3] = target: T1, Human FOLR1 Protein His Tag …; assay: ELISA, supernatant diluted 5x
[4] = target: T2, Cynomolgus/Rhesus macaque FOLR1 …; assay: ELISA, supernatant diluted 5x
[5] = target: T1, Human FOLR1 Protein His Tag …; assay: ELISA, supernatant diluted 25x
[6] = target: T2, Cynomolgus/Rhesus macaque FOLR1 …; assay: ELISA, supernatant diluted 25x
[7] = target: T1, Human FOLR1 Protein His Tag …; assay: ELISA, HEK293 supernatant on coated antigen

T1 sequence (P15328 25-233 limits assumed): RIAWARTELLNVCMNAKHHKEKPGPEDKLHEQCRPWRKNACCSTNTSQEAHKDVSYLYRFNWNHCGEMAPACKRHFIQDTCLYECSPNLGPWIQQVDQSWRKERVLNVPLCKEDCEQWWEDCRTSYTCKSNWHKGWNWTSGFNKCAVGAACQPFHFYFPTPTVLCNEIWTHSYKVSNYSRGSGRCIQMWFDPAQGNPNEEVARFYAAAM
T2 sequence (A0A2K5U044 entry or part of it): as the sequence (P15328 25-233 limits assumed) above, with I2T, W4R, R37K, A146P, H171Y counted along it

| Binder | OD450 [1] | OD450 [2] | OD450 [3] | OD450 [4] | OD450 [5] | OD450 [6] | OD450 [7] |
| --- | --- | --- | --- | --- | --- | --- | --- |
| F1 (antibody, V domains shown, also called clone F1; anti-FOLR1 antibody F1) VH: EVQLLESGGGVVQPGRSLRLSCAASGFTFSSYGMHWVRQAPGKGLEWVAVISYDGSNKYYADSVKGRFTISRDNSKNTLYLQMNSLRAEDTAVYYCARPRAYYGAYGSSFDYWGQGTQVTVSS VL: EIVMTQSPSSVSASVGDRVAITCRASQGISSWLAWYQQKPGKAPKLLIYAASSLQSGVPSRFSGSGSGTDFTLTISSLQPEDFATYYCQQSYSTPLTFGGGTKVDIK | 1.66 | 1.38 | 1.45 | 1.26 | 1.18 | 0.994 | 2.43 |
| F40 (antibody, V domains shown, also called clone F40; anti-FOLR1 antibody F40) VH: EVQLLESGGGVVQPGRSLRLSCAASGFTFSSYAMHWVRQAPGKGLEWVAVISYDGSNKYYADSVKGRFIISRDNSKNTVYLQMNSLRAEDTAVYYCARPTYVFTYTGSSFDYWGQGTQVTVSS VL: DIQVTQSPSSLSASLGDTVSITCRASRGLTDSVAWYQQKPGQAPKLLIYAASTLQSGVPSRFGGSGSGSYFTLTITSLQPEDVATYYCQNYKSAPWTFGQGTKVEIK | 0.811 | 1.35 | 0.382 | 1.11 | 0.163 | 0.924 | 2.39 |
| F112 (antibody, V domains shown, also called clone F112; anti-FOLR1 antibody F112) VH: EVQLLESGGGVVQPGRSLRLSCAASGFTFSSYGMHWVRQAPGKGLEWVAVISYDGSNKYYADSVKGRFTISRHNSKNTLYLQMNSLRAEDTAVYYCARPRAYYGAYGSSFDYWGQGTQVTVSS VL: EIVMTQSPSSVSASVGDRVAITCRASQGISSWLAWYQQKPGKAPKLLIYAASSLQSGVPSRFSGSGSGTDFTLTISSLQPEDFATYYCQQSYSTPLTFGGGTKVDIK | 1.56 | 1.26 | 1.42 | 1.21 | 1.17 | 0.933 | 2.35 |
| F131 (antibody, V domains shown, also called clone F131; F131 mAb) VH: EVQLLESGGGVVQPGRSLRLSCAASGFTFSSYGMHWVRQAPGKGLEWVAVISYDGSNKYYADSVKGRFTISRANSKNTLYLQMNSLRAEDTAVYYCARPRAYYGAYGSSFDYWGQGTQVTVSS VL: EIVMTQSPSSVSASVGDRVAITCRASQGISSWLAWYQQKPGKAPKLLIYAASSLQSGVPSRFSGSGSGTDFTLTISSLQPEDFATYYCQQSYSTPLTFGGGTKVDIK | 1.61 | 1.2 | 1.52 | 1.27 | 1.38 | 1.09 | 2.35 |
| F8 (antibody, V domains shown, also called clone F8; anti-FOLR1 antibody F8) VH: EVQLLESGGGVVQHGRSLRLSCAASGFTFSSYGMHWVRQAPGKGLEWVAVISYDGSNKYYADSVKGRFTISRDNSKNTLYLQMNSLRAEDTAVYYCARPRAYYGAYGSSFDYWGQGTQVTVSS VL: EIVMTQSPSSVSASVGDRVAITCRASQGISSWLAWYQQKPGKAPKLLIYAASSLQSGVPSRFSGSGSGTDFTLTISSLQPEDFATYYCQQSYSTPLTFGGGTKVDIK | 1.67 | 0.896 | 1.65 | 1.28 | 1.31 | 1.06 | 2.45 |
| F138 (antibody, V domains shown, also called clone F138; anti-FOLR1 antibody F138) VH: EVQLLESGGGVVQPGRSLRLSCAASGFTFSSYGMHWVRQAPGKGLEWVAVISYDGSNKYYADSVKGRFTISTHNSKNTLYLQMNSLRAEDTAVYYCARPRAYYGAYGSSFDYWGQGTQVTVSS VL: EIVMTQSPSSVSASVGDRVAITCRASQGISSWLAWYQQKPGKAPKLLIYAASSLQSGVPSRFSGSGSGTDFTLTISSLQPEDFATYYCQQSYSTPLTFGGGTKVDIK | 1.64 | 1.14 | 1.69 | 1.14 | 0.827 | 1.17 | 2.41 |
| F123 (antibody, V domains shown, also called clone F123; anti-FOLR1 antibody F123) VH: EVQLLESGGGVVQPERSLRLSCAASGFTFSSYGMHWVRQAPGKGLEWVAVISYDGSNKYYADSVKGRFTISRANSKNTLYLQMNSLRAEDTAVYYCARPRAYYGAYGSSFDYWGQGTQVTVSS VL: EIVMTQSPSSVSASVGDRVAITCRASQGISSWLAWYQQKPGKAPKLLIYAASSLQSGVPSRFSGSGSGTDFTLTISSLQPEDFATYYCQQSYSTPLTFGGGTKVDIK | 1.72 | 1.36 | 1.47 | 1.3 | 1.33 | 1.07 | 2.32 |
| F100 (antibody, V domains shown, also called clone F100; anti-FOLR1 antibody F100) VH: EVQLLESGGGVVQPGRSLRLSCAASGFTFSSYGMHWVRQAPGKGLEWVAVISYDGSNKYYADSVKGRFTISRPNSKNTLYLQMNSLRAEDTAVYYCARPRAYYGAYGSSFDYWGQGTQVTVSS VL: EIVMTQSPSSVSASVGDRVAITCRASQGISSWLAWYQQKPGKAPKLLIYAASSLQSGVPSRFSGSGSGTDFTLTISSLQPEDFATYYCQQSYSTPLTFGGGTKVDIK | 1.61 | 1.16 | 1.53 | 1.03 | 1.18 | 0.875 | 2.3 |
| F48 (antibody, V domains shown, also called clone F48; anti-FOLR1 antibody F48) VH: EVQLLESGGGVVQPGRSLRLSCAASGFTFSSYGMHWVRQAPGKGLEWVAVISYDGSNKYYADSVKGRFTISRDNSKNTLYLHMNSLRAEDTAVYYCARPRAYYGAYGSSFDYWGQGTQVTVSS VL: EIVMTQSPSSVSASVGDRVAITCRASQGISSWLAWYQQKPGKAPKLLIYAASSLQSGVPSRFSGSGSGTDFTLTISSLQPEDFATYYCQQSYSTPLTFGGGTKVDIK | 1.56 | 1.15 | 1.59 | 1.04 | 1.29 | 0.908 | 2.54 |
| F26 (antibody, V domains shown, also called clone F26; anti-FOLR1 antibody F26) VH: EVQLLESGGGVVQRGRSLRLSCAASGFTFSSYGMHWVRQAPGKGLEWVAVISYDGSNKYYADSVKGRFTISRDNSKNTLYLPMNSLRAEDTAVYYCARPRAYYGAYGSSFDYWGQGTQVTVSS VL: EIVMTQSPSSVSASVGDRVAITCRASQGISSWLAWYQQKPGKAPKLLIYAASSLQSGVPSRFSGSGSGTDFTLTISSLQPEDFATYYCQQSYSTPLTFGGGTKVDIK | 1.64 | 1.24 | 1.51 | 1.21 | 1.48 | 1.02 | 2.43 |
